Data on one molecule can be found in US20130071921A1 (Pfizer, published 2013).

Assay [1] deals with T1, Recombinant human Dkk-1 (R&D Systems cat no. 1096-DK/CF), 10xHis tag at the C terminal (human, UniProt O94907 32-266).
T1 sequence: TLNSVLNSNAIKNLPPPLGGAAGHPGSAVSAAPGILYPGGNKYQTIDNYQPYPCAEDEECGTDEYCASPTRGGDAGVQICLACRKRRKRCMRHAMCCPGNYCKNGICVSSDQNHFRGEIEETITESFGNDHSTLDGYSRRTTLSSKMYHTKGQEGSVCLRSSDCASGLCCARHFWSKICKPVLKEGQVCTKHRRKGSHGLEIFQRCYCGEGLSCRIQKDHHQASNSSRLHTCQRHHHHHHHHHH
Description: cell-based or functional assay.

In assay [2] the target is T2, recombinant rat Dkk-1 (R&D systems Cat No. 4010-DK/CF) (rat).
T2 construct: Bought
The assay is described as follows: SPR BIAcore, huMabJC18 captured by goat Fab2 anti-human Fc, rat Dkk-1 injected. The method, then: (§1) For the interaction analyses of huMabJC18 with mouse or rat Dkk-1, low-levels of huMabJC18 (typically, 100-400 response units) were captured on individual flow cells by goat Fab2 anti-human Fc, which was pre-immobilized to the CM5 chip surface. A goat Fab2 anti-human Fc-saturated flow cell containing no humanized antibody served as reference channel. Mouse or rat Dkk-1 (R&D Systems) was titrated over the chip using 70.1 nM or 30.2 nM as top concentration, respectively, of a three-fold dilution series Association and dissociation phases were monitored at 100 μL/min for 90 seconds and 30 minutes, respectively. Capture surfaces for all experiments were regenerated with two 30 second pulses of […] H₃PO₄, except for the amine-coupled huMabJC18 surface used in the human Dkk-1 experiment, which was not regenerated.
Background: SPR reads the build-up and loss of mass on a sensor chip optically.

Assay [3] addresses T3, recombinant mouse Dkk-4 (R&D systems Cat No. 3105-DK/CF) (mouse, UniProt Q8VEJ3 19-221, limits assumed).
T3 construct: Bought; also called mDkk-4
T3 sequence (looked up): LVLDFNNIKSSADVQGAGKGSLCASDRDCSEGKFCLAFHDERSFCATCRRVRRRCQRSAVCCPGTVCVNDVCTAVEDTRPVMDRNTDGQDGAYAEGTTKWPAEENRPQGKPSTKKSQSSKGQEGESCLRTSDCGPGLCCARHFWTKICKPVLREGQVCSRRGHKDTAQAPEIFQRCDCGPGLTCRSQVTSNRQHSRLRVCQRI
The assay is described as follows: SPR BIAcore, huMabJC18 captured by goat Fab2 anti-human Fc, mDkk-4 titrated from 32.3 nM.

Assay [4] concerns the target T4, recombinant mouse Dkk-2 (R&D systems Cat No. 2435-DK/CF) (mouse, UniProt Q9QYZ8 34-259, limits assumed).
T4 construct: Bought; also called mDkk-2
T4 sequence (looked up): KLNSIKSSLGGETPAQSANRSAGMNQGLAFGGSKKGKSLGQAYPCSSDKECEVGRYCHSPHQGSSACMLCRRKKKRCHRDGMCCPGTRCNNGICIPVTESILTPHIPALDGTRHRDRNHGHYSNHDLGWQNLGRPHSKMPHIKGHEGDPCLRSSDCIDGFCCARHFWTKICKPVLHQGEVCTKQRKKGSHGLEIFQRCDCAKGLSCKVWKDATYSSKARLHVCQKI
Description: SPR BIAcore, huMabJC18 captured by goat Fab2 anti-human Fc, mDkk-2 titrated from 88.8 nM.

Assay [5] has as its target T5, recombinant mouse Dkk-1 (R&D systems Cat No. 1765-DK/CF) (mouse, UniProt O54908 32-272).
T5 construct: Bought
T5 sequence (looked up): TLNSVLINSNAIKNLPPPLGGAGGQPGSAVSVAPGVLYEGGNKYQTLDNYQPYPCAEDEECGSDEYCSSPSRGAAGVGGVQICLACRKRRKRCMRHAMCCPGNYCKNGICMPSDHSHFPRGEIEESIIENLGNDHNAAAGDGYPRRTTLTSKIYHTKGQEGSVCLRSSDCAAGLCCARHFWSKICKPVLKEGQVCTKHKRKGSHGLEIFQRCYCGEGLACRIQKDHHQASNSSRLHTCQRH
Description: SPR BIAcore, huMabJC18 captured by goat Fab2 anti-human Fc, mouse Dkk-1 injected. How it is done: as §1

For assay [6], the target named is T1, Recombinant human Dkk-1 (R&D Systems …). Description: SPR BIAcore 25C, huMabJC18 IgG amine-coupled, human Dkk1 injected. The method, then:
The affinity of huMabJC18 to human, mouse or rat Dkk1 was determined by using the BIAcore3000™ surface plasmon resonance (SPR) system (BIAcore Inc., Piscataway, N.J.), equipped with a CM5 sensor chip (BIAcore AB, Uppsala, Sweden). For the huMabJC18-human Dkk1 interaction analysis, reaction surfaces were generated by amine coupling of huMabJC18 to three flow cells (Fc2, Fc3 and Fc4). CM5 chips were activated with N-ethyl-N′-(3-dimethylaminopropyl)-carbodiinide hydrochloride (EDC) and N-hydroxysuccinimide (NHS) according to the supplier's instructions. The huMabJC18 IgG was diluted into 10 mM sodium acetate pH 4.0 and injected over the activated chip at a concentration of 30 μg/ml.
Using variable flow time across the individual chip channels, a range of antibody density was achieved: 200-800 response units (RU). The IgG and reference surfaces were then saturated with goat Fab2 anti-human Fc (Cappel 55053) to prevent nonspecific binding by Dkk-1 to the chip surface. The chip was then blocked with ethanolamine. Assays were performed at 25° C., with a BIAcore running buffer composed of HBS-EP (0.01M HEPES, pH 7.4, 0.15 NaCl, 3 mM EDTA, 0.005% Surfactant P20)+2 mg/ml BSA+2 mg/ml CM Dextran. A five membered, three fold dilution series starting at 30.9 nM purified human Dkk1 (R&D Systems) protein was injected for 1.5 min at 100 μL/min, and dissociation was monitored for […]. Kinetic association rates (kₒₙ) and dissociation rates (koff) were obtained simultaneously by fitting the data to a 1:1 Langmuir binding model (Karlsson, R. Roos, H. Fagerstam, L. Petersson, B. (1994). Methods Enzymology 6. 99-110) using the BIAevaluation program. Equilibrium dissociation constant (KD) values were calculated as koff/kₒₙ.

Usually Kd stands for the concentration at which binding is half-saturated. For orientation: koff means the rate constant with which the complex falls apart. Broadly, the kon is the rate constant with which the complex forms.

B1: huMabJC18, fully humanized anti-Dkk-1 monoclonal antibody (antibody, human IgG2, kappa, V domains shown)
VH: EVQLVESGGGLVQPGGSLRLSCAASGFTFSSYAISWVRQAPGKGLEWVASVSGTGLGFQTYYPDSVKGRFTISRDNAKNSLYLQMNSLRAEDTAVYYCATSLENYAFDYWGQGTTVTVSS
VL: EIVLTQSPATLSLSPGERATLSCRASESVDDFGISFINWYQQKPGQAPRLLIYAGSKQGSGIPARFSGSGSGTDFTLTISSLEPEDFAVYYCQQLKEVPPTFGGGTKVEIKR
notes: IgG2(delta a: A329S, P330S), kappa; also called huMabJC18 IgG
Take B1: the “IC50 in a Cell-based Functional Assay (U2OS TOPFlash luciferase; reversal of Dkk-1 inhibition of Wnt3a signaling)” value in assay [1] is 1.3 nM. Also, the Kd in assay [2] is < 0.1 nM; in assay [3], < 0.03 nM; in assay [4] it was 9 nM; in assay [5] it was < 0.03 nM; in assay [6], < 0.002 nM. Besides, the T1/2 in assay [2] was 0.92 h; in assay [3], > 4.94 h; in assay [4] it was 1.14 h; in assay [5], > 4.94 h; in assay [6] it was > 96.3 h. Besides, the koff is 0.00021 s⁻¹ in assay [2]; < 3.9e-05 s⁻¹ in assay [3]; 0.000169 s⁻¹ in assay [4]; < 3.9e-05 s⁻¹ in assay [5]; < 2e-06 s⁻¹ in assay [6]. Further, the kon was > 1.3e+06 M⁻¹ s⁻¹ in assay [2]; > 1.3e+06 M⁻¹ s⁻¹ in assay [3]; 18000 M⁻¹ s⁻¹ in assay [4]; > 1.3e+06 M⁻¹ s⁻¹ in assay [5]; > 1.3e+06 M⁻¹ s⁻¹ in assay [6].
